Results on one molecule are retold here after patent US20100240040A1, “METHOD FOR SCREENING FOR SELECTIVE MODULATOR OF THE NF-KB PATHWAY ACTIVATION” (INSTITUT PASTEUR, priority 2007, published 2010).

In assay [1] the target is Biot-CC2-LZ (murine). As to the kind of experiment: HTRF, 50 nM each, in the presence of Mono-Ub (1 µM).
Assay [2] deals with Biot-CC2-LZ (murine). Description: HTRF, 50 nM each, in the presence of Poly-Ub (12.5 µM). In general terms: In TR-FRET formats the signal depends on donor and acceptor labels being close together.
For assay [3], the target named is Biot-CC2-LZ (murine). As to the kind of experiment: HTRF, 50 nM each, streptavidin-EuK 2 nM, anti-His-XL665 7 nM.
The target of assay [4] is Biot-CC2-LZ (murine). As to the kind of experiment: HTRF, 50 nM each, in the presence of GST-Ub4 (12.5 µM), which induces the CC2-LZ dimer.

B1: His-CC2-LZ (protein)
chain: MGSHHHHHHSSGLVPRGSHMASLEDLRQQLQQAEEALVAKQELIDKLKEEAEQHKIVMETVPVLKAQADIYKADFQAERHAREKLVEKKEYLQEQLEQLQREFNKL
In the case of B1, the FRET (ΔF %) is < 0 ΔF % with Biot-CC2-LZ (murine) [1], < 0 ΔF % with Biot-CC2-LZ (murine) [2], < 0 ΔF % with Biot-CC2-LZ (murine) [3] and 373 ΔF % in the assay with Biot-CC2-LZ (murine) [4].
